Assay results reported in the supplement of paper PMC9876800.

System: peptide library, one residue held at a place counted from the S/T acceptor
Assay: relative phosphorylation of the sub-library (ratio to the mean residue at this position); higher = residue favoured
Procedure, shortened: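 Relative sub-library phosphorylation, a ratio to the mean residue at that position, was obtained by phosphorimaging and densitometry of spots on streptavidin membranes. Before capture, purified recombinant kinases were incubated for 90 min under kinase-specific conditions with 50 μM biotinylated degenerate peptide sub-libraries and 50 μM ATP spiked with γ-32P-ATP. Each sub-library fixed one residue at one position around a central Ser/Thr.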

STK38, construct: Full length, human, sequence (Q15208 whole entry, looked up): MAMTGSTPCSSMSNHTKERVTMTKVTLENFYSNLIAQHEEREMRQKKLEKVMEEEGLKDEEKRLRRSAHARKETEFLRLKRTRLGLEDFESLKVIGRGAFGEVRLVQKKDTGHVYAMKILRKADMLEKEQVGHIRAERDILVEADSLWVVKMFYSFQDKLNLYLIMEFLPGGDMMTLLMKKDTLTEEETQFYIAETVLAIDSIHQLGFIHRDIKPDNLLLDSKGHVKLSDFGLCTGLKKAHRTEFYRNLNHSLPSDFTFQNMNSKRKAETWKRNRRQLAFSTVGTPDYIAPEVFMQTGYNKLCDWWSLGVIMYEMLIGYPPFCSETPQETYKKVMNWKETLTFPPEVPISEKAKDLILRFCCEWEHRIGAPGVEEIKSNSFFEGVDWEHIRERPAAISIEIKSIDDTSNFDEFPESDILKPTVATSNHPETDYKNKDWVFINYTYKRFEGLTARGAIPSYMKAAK
UHMK1, construct: Full length, rat, sequence (Q63285 whole entry, looked up): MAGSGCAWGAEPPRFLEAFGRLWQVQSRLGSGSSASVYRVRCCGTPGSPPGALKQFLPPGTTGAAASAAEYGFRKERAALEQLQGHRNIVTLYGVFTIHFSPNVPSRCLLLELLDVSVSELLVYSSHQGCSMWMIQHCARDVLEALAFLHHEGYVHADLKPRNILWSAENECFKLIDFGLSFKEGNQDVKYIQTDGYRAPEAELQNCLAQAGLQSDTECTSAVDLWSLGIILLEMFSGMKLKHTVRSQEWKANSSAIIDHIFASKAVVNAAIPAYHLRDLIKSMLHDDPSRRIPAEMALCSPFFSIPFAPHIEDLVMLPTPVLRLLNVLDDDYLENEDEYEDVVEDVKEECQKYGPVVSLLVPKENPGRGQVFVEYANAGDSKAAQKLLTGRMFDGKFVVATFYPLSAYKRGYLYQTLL
STK33, construct: Full length, human, sequence (Q9BYT3 whole entry, looked up): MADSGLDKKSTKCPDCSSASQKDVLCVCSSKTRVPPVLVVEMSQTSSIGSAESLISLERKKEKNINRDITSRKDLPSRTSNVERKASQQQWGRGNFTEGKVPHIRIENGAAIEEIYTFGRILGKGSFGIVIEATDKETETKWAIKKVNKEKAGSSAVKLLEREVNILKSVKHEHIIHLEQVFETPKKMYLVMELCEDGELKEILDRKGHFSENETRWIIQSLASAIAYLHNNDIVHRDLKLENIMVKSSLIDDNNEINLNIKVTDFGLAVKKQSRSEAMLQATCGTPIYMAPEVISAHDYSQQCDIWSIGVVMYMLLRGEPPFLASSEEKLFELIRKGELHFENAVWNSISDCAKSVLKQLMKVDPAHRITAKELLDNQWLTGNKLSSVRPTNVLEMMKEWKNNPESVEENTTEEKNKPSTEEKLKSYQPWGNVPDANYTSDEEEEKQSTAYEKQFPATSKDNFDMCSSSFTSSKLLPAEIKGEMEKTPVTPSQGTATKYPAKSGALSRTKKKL
TBK1, construct: Full length, human, sequence (Q9UHD2 whole entry, looked up): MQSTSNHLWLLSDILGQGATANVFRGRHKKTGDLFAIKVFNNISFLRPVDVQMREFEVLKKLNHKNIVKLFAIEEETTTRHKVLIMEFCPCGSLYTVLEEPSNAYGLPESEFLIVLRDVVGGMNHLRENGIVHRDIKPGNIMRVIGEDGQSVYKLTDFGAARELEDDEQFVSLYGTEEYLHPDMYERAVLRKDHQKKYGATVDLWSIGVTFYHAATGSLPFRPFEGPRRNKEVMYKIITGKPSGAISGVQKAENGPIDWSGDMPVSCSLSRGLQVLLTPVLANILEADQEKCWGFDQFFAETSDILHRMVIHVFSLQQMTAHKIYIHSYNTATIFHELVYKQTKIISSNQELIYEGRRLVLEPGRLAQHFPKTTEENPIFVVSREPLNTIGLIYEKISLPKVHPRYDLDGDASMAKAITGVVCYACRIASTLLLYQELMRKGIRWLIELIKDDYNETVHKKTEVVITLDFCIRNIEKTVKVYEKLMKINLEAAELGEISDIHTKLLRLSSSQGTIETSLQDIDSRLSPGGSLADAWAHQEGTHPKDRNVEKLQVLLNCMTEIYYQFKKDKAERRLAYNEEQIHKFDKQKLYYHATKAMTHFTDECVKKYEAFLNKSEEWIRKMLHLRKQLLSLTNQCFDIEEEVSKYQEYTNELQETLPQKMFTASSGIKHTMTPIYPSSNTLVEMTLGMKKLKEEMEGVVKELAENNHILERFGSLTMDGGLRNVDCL

STK33, construct: Full length, human (from UniProt Q9BYT3)
relative phosphorylation
Details | at +1 | at +2 | at +3 | at +4 | at -1 | at -2 | at -3 | at -4 | at -5
A fixed | 0.409 | 0.63 | 0.576 | 0.702 | 0.899 | 0.84 | 0.905 | 1.03 | 1.17
D fixed | 0.151 | 0.26 | 0.433 | 0.754 | 0.393 | 0.433 | 0.344 | 0.723 | 0.731
E fixed | 0.158 | 0.243 | 0.451 | 0.951 | 0.572 | 0.411 | 0.355 | 0.681 | 0.709
F fixed | 1.25 | 1.85 | 1.22 | 0.842 | 0.653 | 1.95 | 1.53 | 0.855 | 0.849
G fixed | 0.327 | 0.41 | 0.743 | 1.03 | 0.676 | 0.987 | 1.08 | 1.23 | 1.43
H fixed | 0.745 | 1.82 | 1.31 | 1.12 | 0.933 | 1.39 | 1.07 | 1.19 | 1.25
I fixed | 1.33 | 0.956 | 0.804 | 0.992 | 0.574 | 0.549 | 0.683 | 0.661 | 0.6
K fixed | 2.18 | 0.815 | 2.01 | 1.41 | 2.59 | 0.826 | 0.921 | 1.39 | 1.72
L fixed | 0.893 | 0.654 | 0.657 | 0.801 | 0.812 | 0.865 | 1.62 | 0.77 | 0.603
M fixed | 1.36 | 0.871 | 0.756 | 0.914 | 1.14 | 0.99 | 1.42 | 0.836 | 0.653
N fixed | 0.578 | 0.59 | 0.655 | 0.917 | 0.978 | 1.32 | 0.724 | 1.02 | 1.11
P fixed | 0.217 | 0.394 | 0.564 | 1.38 | 0.306 | 0.43 | 0.915 | 0.924 | 1.12
Q fixed | 1.23 | 0.53 | 0.661 | 0.994 | 1.33 | 0.786 | 0.836 | 0.823 | 0.856
R fixed | 3.13 | 1.16 | 2.98 | 1.28 | 2.9 | 1.34 | 1.66 | 1.42 | 1.5
V fixed | 1.29 | 0.796 | 0.721 | 0.835 | 0.747 | 0.568 | 0.555 | 0.585 | 0.613
W fixed | 0.768 | 1.8 | 1.23 | 1.21 | 0.557 | 1.73 | 1.23 | 1.98 | 1.22
Y fixed | 0.988 | 3.23 | 1.24 | 0.882 | 0.943 | 1.59 | 1.16 | 0.886 | 0.869
pThr fixed | 0.683 | 0.937 | 1.23 | 1.3 | 0.439 | 0.702 | 1.14 | 1.05 | 1.24
pTyr fixed | 0.677 | 11.7 | 1.91 | 1.8 | 0.918 | 0.887 | 1.02 | 0.779 | 1.13

STK38, construct: Full length, human (from UniProt Q15208)
relative phosphorylation
Details | at +1 | at +2 | at +3 | at +4 | at -1 | at -2 | at -3 | at -4 | at -5
A fixed | 0.75 | 1.35 | 0.73 | 0.791 | 0.743 | 0.739 | 0.655 | 0.978 | 0.83
D fixed | 0.673 | 1.2 | 0.723 | 1.06 | 0.728 | 0.6 | 0.558 | 0.704 | 0.609
E fixed | 0.644 | 0.483 | 0.631 | 0.807 | 0.524 | 0.494 | 0.476 | 0.71 | 0.477
F fixed | 0.893 | 0.79 | 1.04 | 0.894 | 0.545 | 0.758 | 0.413 | 0.596 | 0.557
G fixed | 1.36 | 1.33 | 1.23 | 1.16 | 1.45 | 0.936 | 0.771 | 1.09 | 0.88
H fixed | 1.04 | 2.51 | 1.3 | 1.03 | 1.18 | 1.56 | 1.35 | 1.26 | 3.01
I fixed | 1.07 | 0.495 | 0.738 | 0.891 | 0.325 | 0.38 | 0.31 | 0.575 | 0.498
K fixed | 0.845 | 0.783 | 1.12 | 1.13 | 1.94 | 2.24 | 2.21 | 2.17 | 2.44
L fixed | 0.932 | 0.516 | 1.02 | 0.897 | 0.752 | 0.451 | 0.377 | 0.618 | 0.546
M fixed | 1.59 | 0.575 | 0.831 | 0.929 | 0.751 | 0.571 | 0.455 | 0.745 | 0.477
N fixed | 1.13 | 1.11 | 0.954 | 1.16 | 1.34 | 1.23 | 0.841 | 0.878 | 0.795
P fixed | 0.335 | 0.69 | 0.872 | 1.28 | 1.65 | 0.83 | 1.18 | 1.04 | 0.749
Q fixed | 1.15 | 0.982 | 0.938 | 1.12 | 1.17 | 0.974 | 0.886 | 0.966 | 0.737
R fixed | 1.06 | 0.87 | 1.27 | 1.1 | 1.61 | 3.03 | 4.9 | 2.46 | 2.35
V fixed | 0.965 | 1.01 | 0.729 | 0.835 | 0.477 | 0.421 | 0.35 | 0.6 | 0.542
W fixed | 1.4 | 1.32 | 1.59 | 1.05 | 0.777 | 1.05 | 0.637 | 0.884 | 0.867
Y fixed | 1.18 | 0.992 | 1.29 | 0.865 | 1.03 | 0.727 | 0.636 | 0.733 | 0.636
pThr fixed | 1.01 | 0.848 | 0.709 | 0.92 | 0.546 | 0.635 | 0.572 | 0.738 | 0.545
pTyr fixed | 0.731 | 0.745 | 0.819 | 0.623 | 0.559 | 0.525 | 0.613 | 0.547 | 0.515

TBK1, construct: Full length, human (from UniProt Q9UHD2)
relative phosphorylation
Details | at +1 | at +2 | at +3 | at +4 | at -1 | at -2 | at -3 | at -4 | at -5
A fixed | 0.37 | 1.01 | 0.9 | 0.857 | 1.09 | 0.967 | 1.04 | 1.04 | 1.06
D fixed | 0.296 | 0.857 | 0.879 | 0.864 | 0.882 | 1.15 | 1.27 | 1.29 | 1.16
E fixed | 0.214 | 0.903 | 0.869 | 0.945 | 0.855 | 1.06 | 1.32 | 1.13 | 1.18
F fixed | 1.85 | 1.22 | 1.31 | 1.23 | 0.885 | 1.33 | 0.781 | 0.789 | 0.923
G fixed | 0.548 | 0.851 | 0.974 | 0.897 | 0.814 | 1.12 | 1.56 | 1.19 | 1.19
H fixed | 0.557 | 1.09 | 1.16 | 1.05 | 1.11 | 1.06 | 1.08 | 1.04 | 1.21
I fixed | 2.31 | 1.23 | 0.75 | 1.12 | 0.853 | 0.589 | 0.68 | 0.789 | 0.771
K fixed | 0.249 | 0.616 | 0.555 | 0.768 | 1.13 | 0.613 | 0.985 | 1.07 | 1.19
L fixed | 3.03 | 1.22 | 1.04 | 1.09 | 1.06 | 0.864 | 0.568 | 0.903 | 0.805
M fixed | 2.85 | 1.27 | 1.1 | 1.14 | 1.29 | 1.16 | 0.928 | 0.998 | 0.8
N fixed | 0.349 | 1.02 | 0.962 | 0.876 | 0.957 | 0.883 | 1.09 | 1.2 | 1.09
P fixed | 0.178 | 0.765 | 1.16 | 1.04 | 1.26 | 1.83 | 1.24 | 1.08 | 0.981
Q fixed | 0.333 | 1.06 | 0.884 | 0.921 | 1.05 | 0.928 | 1.24 | 1.03 | 1.03
R fixed | 0.255 | 0.858 | 0.602 | 0.743 | 1.05 | 0.666 | 1 | 0.997 | 1.12
V fixed | 0.957 | 1.3 | 0.974 | 0.889 | 0.834 | 0.658 | 0.7 | 0.721 | 0.784
W fixed | 1.41 | 0.804 | 1.33 | 1.36 | 0.75 | 0.748 | 0.711 | 0.877 | 0.857
Y fixed | 1.24 | 0.931 | 1.54 | 1.22 | 1.12 | 1.39 | 0.812 | 0.861 | 0.859
pThr fixed | 0.465 | 0.783 | 0.625 | 0.849 | 0.582 | 0.817 | 1.14 | 1.01 | 1.06
pTyr fixed | 0.494 | 0.785 | 0.848 | 0.779 | 1.07 | 1.46 | 1.32 | 1.03 | 1.11

UHMK1, construct: Full length, rat (from UniProt Q63285)
relative phosphorylation
Details | at +1 | at +2 | at +3 | at +4 | at -1 | at -2 | at -3 | at -4 | at -5
A fixed | 0.707 | 1.1 | 1.58 | 1.14 | 1.16 | 1.12 | 0.872 | 0.961 | 0.981
D fixed | 0.246 | 0.442 | 0.33 | 0.594 | 1.67 | 3.17 | 3.13 | 1.43 | 1.11
E fixed | 0.266 | 0.515 | 0.397 | 1.54 | 0.818 | 1.86 | 2.01 | 1.14 | 1.02
F fixed | 0.343 | 1.09 | 1.12 | 0.824 | 0.666 | 0.678 | 0.626 | 0.742 | 0.715
G fixed | 0.86 | 1.08 | 0.906 | 0.915 | 1.54 | 1.22 | 1.11 | 1.02 | 0.994
H fixed | 0.349 | 0.936 | 0.99 | 0.78 | 0.872 | 0.714 | 0.822 | 0.872 | 1.45
I fixed | 0.665 | 1.18 | 0.77 | 1.36 | 0.636 | 0.663 | 0.704 | 0.917 | 0.931
K fixed | 0.437 | 1.07 | 0.477 | 0.761 | 0.939 | 0.636 | 0.625 | 1.15 | 1.64
L fixed | 0.363 | 1.02 | 0.872 | 0.86 | 0.808 | 0.677 | 0.672 | 0.95 | 1.22
M fixed | 0.362 | 0.76 | 0.601 | 0.847 | 0.73 | 0.599 | 0.647 | 0.703 | 0.748
N fixed | 0.299 | 0.664 | 0.402 | 0.588 | 1.36 | 0.945 | 1.09 | 1.28 | 1.18
P fixed | 10.2 | 2.02 | 4.75 | 1.07 | 1.9 | 1.37 | 1.17 | 1.16 | 0.952
Q fixed | 0.321 | 0.729 | 0.447 | 1.46 | 0.957 | 0.693 | 0.801 | 0.769 | 0.669
R fixed | 0.388 | 0.958 | 0.829 | 0.681 | 0.81 | 0.592 | 0.674 | 0.677 | 0.749
V fixed | 0.475 | 1.37 | 0.887 | 1.89 | 0.763 | 0.786 | 0.69 | 0.734 | 0.758
W fixed | 0.362 | 0.831 | 0.732 | 0.792 | 0.681 | 0.631 | 0.665 | 1.79 | 1.13
Y fixed | 0.337 | 1.25 | 0.91 | 0.891 | 0.687 | 0.642 | 0.685 | 0.712 | 0.749
pThr fixed | 0.306 | 0.654 | 0.572 | 0.747 | 1.2 | 5.01 | 2.73 | 1.9 | 2.82
pTyr fixed | 0.357 | 0.536 | 0.505 | 1.06 | 0.702 | 2.41 | 2.11 | 1.36 | 0.883
